# From the RNAGym collection of RNA variant scans (doi:10.1093/molbev/msab373)
# B1: Azoarcus group I ribozyme (parent)
# chain: GUGCCUUGCGCCGGGAAACCACGCAAGGGAUGGUGUCAAAUUCGGCGAAACCUAAGCGCCCGCCCGGGCGUAUGGCAACGCCGAGCCAAGCUUCGGCGCCUGCGCCGAUGAAGGUGUAGAGACUAGACGGCACCCACCUAAGGCAAACGCUAUGGUGAAGGCAUAGUCCAGGGAGUGGCGAAAGUCACACAAACCGG
# Variants of: B1
# Assay: reverse-splicing fitness (ratio to wild type); higher = more active; in vitro selection; Mg2+ level not given
# Procedure, shortened: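 An in vitro group I ribozyme library with randomized positions was T7-transcribed and gel-purified. In triplicate, 10 pmol RNA in EPPS pH 7.5 was reacted with 50 pmoles of a 30-nt RNA substrate for 1 h at 37 °C across several added MgCl2 levels (1–48 mM), then stopped with EDTA. Products were reverse transcribed from a substrate-complementary primer, PCR-amplified and sequenced (HiSeq 4000). Fitness is a variant's read proportion after selection over that before, normalised to wild type.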
row,Variant,reverse-splicing fitness
1,C82G A120U A145U C150A C169U,0.00221
2,C82G A120U A145U C150A C169G,0.00252
3,C82G A120U A145U C150A C169A,0.00187
4,C82G A120G C150A C169G,0.0133
5,C82G A120G C150A C169U,0.00945
6,C82G A120G C150A C169A,0.0117
7,C82G A120U A145G C150U C169A,0.00606
8,C82G A120U A145G C150U C169U,0.00803
9,C82G A120U A145G C150U C169G,0.00765
10,C82G A120U A145C C150A U176C,0.00532
11,C82G A120U A145C C150A U176A,0.00467
12,C82G A120U A145C C150A U176G,0.00299
13,C82G A120U A145C C150G U176G,0.00292
14,C82G A120U A145C C150G U176A,0.00741
15,C82G A120U A145C C150G U176C,0.00907
16,C82G A120G A145U C150A C169A U176C,0.0141
17,C82G A120G A145U C150A C169A U176G,0.00465
18,C82G A120G A145U C150A C169A U176A,0.014
19,C82G A120U A145C C150G C169G U176A,0.00247
20,C82G A120U A145C C150G C169G U176C,0.00209
21,C82G A120U A145C C150G C169G U176G,0.00178
22,C82G A120U A145U C150G U176C,0.0112
23,C82G A120U A145U C150G U176A,0.00715
24,C82G A120U A145U C150G U176G,0.00267

row,Variant,reverse-splicing fitness
1,C82G A120U A145G C150U C169G U176A,0.00552
2,C82G A120U A145G C150U C169G U176G,0.00186
3,C82G A120U A145G C150U C169G U176C,0.00419
4,C82G A120U A145U C169G U176G,0.00119
5,C82G A120U A145U C169G U176C,0.00292
6,C82G A120U A145U C169G U176A,0.00234
7,C82G A120U A145U C150A C169A U176G,0.00156
8,C82G A120U A145U C150A C169A U176C,0.00199
9,C82G A120U A145U C150A C169A U176A,0.00218
10,C82G A120G A145U C150A C169A,0.00985
11,C82G A120G A145U C150A C169U,0.00806
12,C82G A120G A145U C150A C169G,0.00926
13,C82G A120G A145U C150G C169G U176A,0.00742
14,C82G A120G A145U C150G C169G U176C,0.00564
15,C82G A120G A145U C150G C169G U176G,0.00385
16,C82G A120G A145G U176C,0.0211
17,C82G A120G A145G U176G,0.00636
18,C82G A120G A145G U176A,0.0129
19,C82G A120U A145C C150U C169G U176A,0.00262
20,C82G A120U A145C C150U C169G U176C,0.00277
21,C82G A120U A145C C150U C169G U176G,0.00162
22,C82G A120U A145C C150A C169A U176C,0.00208
23,C82G A120U A145C C150A C169A U176G,0.00157
24,C82G A120U A145C C150A C169A U176A,0.0017

row,Variant,reverse-splicing fitness
1,C82G A120G C150U C169G,0.0318
2,C82G A120G C150U C169U,0.0164
3,C82G A120G C150U C169A,0.0193
4,C82G A120U A145U C150A U176C,0.0105
5,C82G A120U A145U C150A U176A,0.0083
6,C82G A120U A145U C150A U176G,0.00423
7,C82G A120U A145G C150U U176C,0.0776
8,C82G A120U A145G C150U U176A,0.0528
9,C82G A120U A145G C150U U176G,0.0104
10,C82G A120U A145U C169A,0.00221
11,C82G A120U A145U C169U,0.00672
12,C82G A120U A145U C169G,0.00637
13,C82G A120U A145C C150A C169G U176G,0.00136
14,C82G A120U A145C C150A C169G U176C,0.00207
15,C82G A120U A145C C150A C169G U176A,0.0023
16,C82G A120U A145U C150U C169U U176C,0.00342
17,C82G A120U A145U C150U C169U U176A,0.00283
18,C82G A120U A145U C150U C169U U176G,0.00159
19,C82G A120G C169A U176A,0.0209
20,C82G A120G C169A U176G,0.00403
21,C82G A120G C169A U176C,0.0252
22,C82G A120G C150A U176G,0.0105
23,C82G A120G C150A U176C,0.0195
24,C82G A120G C150A U176A,0.0119

row,Variant,reverse-splicing fitness
1,C82G A120G A145U C150G C169U,0.01
2,C82G A120G A145U C150G C169G,0.0107
3,C82G A120G A145U C150G C169A,0.0112
4,C82G A120U A145U C150U C169G,0.00513
5,C82G A120U A145U C150U C169U,0.00488
6,C82G A120U A145U C150U C169A,0.00259
7,C82G A120U A145U C150U C169G U176G,0.00167
8,C82G A120U A145U C150U C169G U176A,0.00248
9,C82G A120U A145U C150U C169G U176C,0.00331
10,C82G A120G A145U C150U C169A U176A,0.0161
11,C82G A120G A145U C150U C169A U176G,0.00467
12,C82G A120G A145U C150U C169A U176C,0.0133
13,C82G A120G A145U C169U U176G,0.00349
14,C82G A120G A145U C169U U176C,0.0176
15,C82G A120G A145U C169U U176A,0.0203
16,C82G A120U A145C C150U U176G,0.00871
17,C82G A120U A145C C150U U176A,0.0158
18,C82G A120U A145C C150U U176C,0.0197
19,C82G A120U A145G C150U,0.168
20,C82G A120U A145G C150A,0.0245
21,C82G A120U A145G C150G,0.022
22,C82G A120U A145G C169U U176C,0.00453
23,C82G A120U A145G C169U U176G,0.00154
24,C82G A120U A145G C169U U176A,0.00419

row,Variant,reverse-splicing fitness
1,C82G A120G C150U,0.0196
2,C82G A120G C150A,0.00962
3,C82G A120G C150G,0.00725
4,C82G A120U A145G C150A C169G U176G,0.00199
5,C82G A120U A145G C150A C169G U176C,0.00422
6,C82G A120U A145G C150A C169G U176A,0.00555
7,C82G A120U A145G C169A U176A,0.00356
8,C82G A120U A145G C169A U176C,0.00321
9,C82G A120U A145G C169A U176G,0.00159
10,C82G A120U A145C C150A C169A,0.00159
11,C82G A120U A145C C150A C169G,0.00199
12,C82G A120U A145C C150A C169U,0.00213
13,C82G A120G C150G C169U U176C,0.0158
14,C82G A120G C150G C169U U176G,0.00645
15,C82G A120G C150G C169U U176A,0.0113
16,C82G A120G C150U U176A,0.0117
17,C82G A120G C150U U176G,0.0083
18,C82G A120G C150U U176C,0.0192
19,C82G A120G A145U C150G,0.00803
20,C82G A120G A145U C150A,0.00866
21,C82G A120G A145U C150U,0.0229
22,C82G A120U A145G C150A C169U U176G,0.00206
23,C82G A120U A145G C150A C169U U176A,0.00465
24,C82G A120U A145G C150A C169U U176C,0.00375

row,Variant,reverse-splicing fitness
1,C82G A120G A145U C169U,0.0235
2,C82G A120G A145U C169G,0.0523
3,C82G A120G A145U C169A,0.0302
4,C82G A120G A145U C169A U176C,0.0199
5,C82G A120G A145U C169A U176A,0.0122
6,C82G A120G A145U C169A U176G,0.00363
7,C82G A120G A145G C169G U176A,0.0221
8,C82G A120G A145G C169G U176G,0.00379
9,C82G A120G A145G C169G U176C,0.0345
10,C82G A120G C150G C169A U176A,0.0109
11,C82G A120G C150G C169A U176G,0.00588
12,C82G A120G C150G C169A U176C,0.0102
13,C82G A120G A145G C169U,0.0249
14,C82G A120G A145G C169G,0.0507
15,C82G A120G A145G C169A,0.0319
16,C82G A120G C150A C169A U176A,0.0208
17,C82G A120G C150A C169A U176G,0.00604
18,C82G A120G C150A C169A U176C,0.0244
19,C82G A120U A145G C150A U176A,0.0118
20,C82G A120U A145G C150A U176C,0.014
21,C82G A120U A145G C150A U176G,0.00517
22,C82G A120G C150G C169G,0.00959
23,C82G A120G C150G C169U,0.00956
24,C82G A120G C150G C169A,0.00981

row,Variant,reverse-splicing fitness
1,C82G A120U A145C C150A C169U U176A,0.0023
2,C82G A120U A145C C150A C169U U176C,0.00224
3,C82G A120U A145C C150A C169U U176G,0.00162
4,C82G A120G A145G C169U U176C,0.0199
5,C82G A120G A145G C169U U176G,0.00391
6,C82G A120G A145G C169U U176A,0.0208
7,C82G A120U,0.251
8,C82G A120U A145C C150G C169U U176G,0.00182
9,C82G A120U A145C C150G C169U U176C,0.00176
10,C82G A120U A145C C150G C169U U176A,0.00213
11,C82G A120U A145U C150U U176A,0.0449
12,C82G A120U A145U C150U U176G,0.0126
13,C82G A120U A145U C150U U176C,0.0591
14,C82G A120U A145U C150G C169G U176C,0.0022
15,C82G A120U A145U C150G C169G U176G,0.00182
16,C82G A120U A145U C150G C169G U176A,0.00237
17,C82G A120U A145C C150A,0.00856
18,C82G A120U A145C C150U,0.0385
19,C82G A120U A145C C150G,0.0203
20,C82G A120U A145U C150A C169U U176G,0.00185
21,C82G A120U A145U C150A C169U U176A,0.00242
22,C82G A120U A145U C150A C169U U176C,0.0022
23,C82G A120G A145U C150G C169A U176A,0.0112
